The supplement of paper PMC10065799, “High-throughput profiling of sequence recognition by tyrosine kinases and SH2 domains using bacterial peptide display” (eLife, 2023)

Legend:
Jak2 = Jak2 (UniProt O60674); test: phosphorylation enrichment, bacterial display (enrichment ratio); higher = better substrate or ligand; peptides without Tyr show the background
c-Src = test: as above
AncSZ = test: as above
Fyn = Fyn (UniProt P06241); test: as above
Fer (mouse) = test: as above
FGFR1 = FGFR1 (UniProt P11362); test: as above
EPHB2 = EPHB2 (UniProt P29323); test: as above
MERTK = MERTK (UniProt Q12866); test: as above
c-Abl (mouse) = test: as above
EPHB1 = EPHB1 (UniProt P54762); test: as above
Hck = Hck (UniProt P08631); test: as above
FGFR3 = FGFR3 (UniProt P22607); test: as above
Fes = Fes (UniProt P07332); test: as above
SHP2-C SH2 = test: SH2 binding enrichment of the phosphorylated peptide, bacterial display (enrichment ratio); higher = better substrate or ligand; peptides without Tyr show the background
Grb2 SH2 = Grb2 SH2 (UniProt P62993); test: as above
c-Src SH2 = test: as above
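For SH2 binding enrichment of the phosphorylated peptide, bacterial display in this document: peptide library displayed on the E. coli surface as eCPX fusions, selected cells deep-sequenced, score is each peptide's frequency after selection divided by its frequency in the input.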
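For phosphorylation enrichment, bacterial display in this document: 11-residue human phosphosite peptides and single-mutation variants displayed on the E. coli surface, counted by deep sequencing, each peptide's frequency after selection divided by its frequency in the unselected input library; frequency after pTyr selection over input frequency; kinase dosed for 20-30% of maximal phosphorylation in three min.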

Sequence of EPHB2 (P29323 whole entry, looked up): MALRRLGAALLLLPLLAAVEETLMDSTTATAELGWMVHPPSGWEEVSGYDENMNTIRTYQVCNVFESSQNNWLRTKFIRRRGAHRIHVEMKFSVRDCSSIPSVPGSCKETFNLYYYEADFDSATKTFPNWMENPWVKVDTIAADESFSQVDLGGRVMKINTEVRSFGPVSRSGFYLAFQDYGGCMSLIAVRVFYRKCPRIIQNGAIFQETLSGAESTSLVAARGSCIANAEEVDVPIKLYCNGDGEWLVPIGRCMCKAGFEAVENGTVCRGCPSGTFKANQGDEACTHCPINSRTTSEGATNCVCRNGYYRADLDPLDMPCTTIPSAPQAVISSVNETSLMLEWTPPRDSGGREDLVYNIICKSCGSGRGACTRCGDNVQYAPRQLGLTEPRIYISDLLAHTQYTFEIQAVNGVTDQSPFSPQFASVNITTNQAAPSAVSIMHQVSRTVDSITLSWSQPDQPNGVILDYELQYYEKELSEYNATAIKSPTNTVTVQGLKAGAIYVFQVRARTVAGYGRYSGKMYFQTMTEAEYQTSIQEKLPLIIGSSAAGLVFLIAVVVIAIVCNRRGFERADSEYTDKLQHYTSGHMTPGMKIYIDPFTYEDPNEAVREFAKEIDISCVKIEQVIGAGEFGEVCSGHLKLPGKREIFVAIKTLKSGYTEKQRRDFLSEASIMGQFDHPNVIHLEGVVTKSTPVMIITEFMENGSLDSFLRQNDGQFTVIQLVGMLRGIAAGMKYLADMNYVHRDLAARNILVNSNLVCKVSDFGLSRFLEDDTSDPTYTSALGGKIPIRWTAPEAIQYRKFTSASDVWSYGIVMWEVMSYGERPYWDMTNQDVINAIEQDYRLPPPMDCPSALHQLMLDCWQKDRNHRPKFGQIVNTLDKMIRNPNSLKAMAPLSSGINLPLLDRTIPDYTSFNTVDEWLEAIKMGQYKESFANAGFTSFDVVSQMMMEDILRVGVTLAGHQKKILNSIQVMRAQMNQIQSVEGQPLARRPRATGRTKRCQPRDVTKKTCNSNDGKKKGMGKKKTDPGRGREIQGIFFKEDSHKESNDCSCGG
Sequence of Fes (P07332 whole entry, looked up): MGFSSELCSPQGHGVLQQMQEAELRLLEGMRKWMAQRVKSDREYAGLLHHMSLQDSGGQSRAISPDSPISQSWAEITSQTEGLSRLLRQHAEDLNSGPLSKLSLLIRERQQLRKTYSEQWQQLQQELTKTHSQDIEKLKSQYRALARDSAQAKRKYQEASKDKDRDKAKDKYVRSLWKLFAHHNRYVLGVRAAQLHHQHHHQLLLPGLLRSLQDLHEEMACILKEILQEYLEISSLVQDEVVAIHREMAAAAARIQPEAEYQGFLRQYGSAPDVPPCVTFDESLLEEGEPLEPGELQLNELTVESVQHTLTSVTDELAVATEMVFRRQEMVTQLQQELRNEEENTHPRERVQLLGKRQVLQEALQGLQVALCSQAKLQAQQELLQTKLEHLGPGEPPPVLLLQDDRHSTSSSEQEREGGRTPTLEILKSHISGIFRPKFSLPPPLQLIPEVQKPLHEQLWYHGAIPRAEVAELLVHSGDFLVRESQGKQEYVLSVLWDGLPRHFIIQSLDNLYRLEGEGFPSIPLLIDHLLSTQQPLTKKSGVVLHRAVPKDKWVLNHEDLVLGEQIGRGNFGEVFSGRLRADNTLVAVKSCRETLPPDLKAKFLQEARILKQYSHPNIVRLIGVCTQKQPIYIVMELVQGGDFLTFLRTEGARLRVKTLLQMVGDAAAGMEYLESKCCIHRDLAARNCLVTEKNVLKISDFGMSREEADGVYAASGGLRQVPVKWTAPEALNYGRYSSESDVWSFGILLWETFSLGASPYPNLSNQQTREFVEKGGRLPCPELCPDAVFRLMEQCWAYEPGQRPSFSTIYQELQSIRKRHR
Sequence of Fyn (P06241 whole entry, looked up): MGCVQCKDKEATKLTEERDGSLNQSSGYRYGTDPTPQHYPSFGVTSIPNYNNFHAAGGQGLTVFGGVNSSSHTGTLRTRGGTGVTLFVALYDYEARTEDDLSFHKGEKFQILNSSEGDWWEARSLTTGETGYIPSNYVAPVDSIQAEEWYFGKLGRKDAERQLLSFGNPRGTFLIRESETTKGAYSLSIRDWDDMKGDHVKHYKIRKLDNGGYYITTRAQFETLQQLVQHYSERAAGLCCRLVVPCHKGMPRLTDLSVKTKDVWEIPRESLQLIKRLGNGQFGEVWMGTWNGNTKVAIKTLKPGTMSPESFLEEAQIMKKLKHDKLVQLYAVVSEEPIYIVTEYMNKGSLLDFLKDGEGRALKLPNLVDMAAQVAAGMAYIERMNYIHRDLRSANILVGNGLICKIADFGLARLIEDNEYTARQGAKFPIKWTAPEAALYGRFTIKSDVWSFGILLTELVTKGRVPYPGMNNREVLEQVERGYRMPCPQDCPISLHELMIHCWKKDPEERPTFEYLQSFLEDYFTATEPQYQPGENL
Sequence of Hck (P08631 whole entry, looked up): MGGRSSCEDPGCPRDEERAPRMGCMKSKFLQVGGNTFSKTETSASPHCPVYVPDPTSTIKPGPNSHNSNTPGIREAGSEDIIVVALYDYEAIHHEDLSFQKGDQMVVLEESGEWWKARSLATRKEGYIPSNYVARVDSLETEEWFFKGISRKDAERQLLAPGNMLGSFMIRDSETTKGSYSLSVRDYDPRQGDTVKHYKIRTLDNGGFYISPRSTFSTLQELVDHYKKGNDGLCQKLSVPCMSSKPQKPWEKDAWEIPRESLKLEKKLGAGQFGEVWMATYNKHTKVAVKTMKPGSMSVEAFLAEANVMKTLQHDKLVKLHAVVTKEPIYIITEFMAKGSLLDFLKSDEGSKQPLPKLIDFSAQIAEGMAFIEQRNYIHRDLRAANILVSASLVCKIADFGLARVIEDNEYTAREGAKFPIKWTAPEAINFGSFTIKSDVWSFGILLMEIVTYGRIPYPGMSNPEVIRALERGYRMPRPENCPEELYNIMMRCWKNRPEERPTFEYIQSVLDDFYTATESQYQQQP
Sequence of Grb2 SH2 (P62993 whole entry, looked up): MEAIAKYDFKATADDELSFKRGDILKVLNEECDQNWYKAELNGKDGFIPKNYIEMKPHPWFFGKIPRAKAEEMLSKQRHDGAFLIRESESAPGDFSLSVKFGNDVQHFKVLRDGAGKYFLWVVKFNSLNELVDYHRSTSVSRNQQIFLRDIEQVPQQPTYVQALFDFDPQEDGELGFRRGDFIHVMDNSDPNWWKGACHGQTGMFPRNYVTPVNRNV
Sequence of EPHB1 (P54762 whole entry, looked up): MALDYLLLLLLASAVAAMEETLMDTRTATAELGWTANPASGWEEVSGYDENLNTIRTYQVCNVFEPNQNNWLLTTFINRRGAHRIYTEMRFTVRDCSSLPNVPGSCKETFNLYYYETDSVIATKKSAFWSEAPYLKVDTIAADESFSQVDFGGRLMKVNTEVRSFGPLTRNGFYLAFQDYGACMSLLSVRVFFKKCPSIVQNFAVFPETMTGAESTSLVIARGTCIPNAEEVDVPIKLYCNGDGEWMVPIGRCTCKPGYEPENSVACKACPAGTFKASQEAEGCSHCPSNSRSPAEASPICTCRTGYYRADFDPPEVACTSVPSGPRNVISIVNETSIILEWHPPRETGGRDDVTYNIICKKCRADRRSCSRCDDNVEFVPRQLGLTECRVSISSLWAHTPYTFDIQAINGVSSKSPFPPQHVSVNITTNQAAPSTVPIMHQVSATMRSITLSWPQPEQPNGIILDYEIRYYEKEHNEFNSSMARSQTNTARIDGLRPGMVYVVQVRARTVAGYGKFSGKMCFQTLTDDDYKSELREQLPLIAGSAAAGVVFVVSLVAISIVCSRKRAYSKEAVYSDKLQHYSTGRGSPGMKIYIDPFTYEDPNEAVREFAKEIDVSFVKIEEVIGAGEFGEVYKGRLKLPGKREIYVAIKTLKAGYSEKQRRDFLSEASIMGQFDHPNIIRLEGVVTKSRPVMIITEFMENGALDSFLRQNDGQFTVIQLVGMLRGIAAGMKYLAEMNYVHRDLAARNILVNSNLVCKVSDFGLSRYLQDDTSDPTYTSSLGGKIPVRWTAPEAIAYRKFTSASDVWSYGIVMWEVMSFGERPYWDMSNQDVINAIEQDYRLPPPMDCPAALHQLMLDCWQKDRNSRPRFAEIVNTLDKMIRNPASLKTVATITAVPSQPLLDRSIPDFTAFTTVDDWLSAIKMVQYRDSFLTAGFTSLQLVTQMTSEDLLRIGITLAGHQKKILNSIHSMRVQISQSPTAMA
Sequence of FGFR3 (P22607 whole entry, looked up): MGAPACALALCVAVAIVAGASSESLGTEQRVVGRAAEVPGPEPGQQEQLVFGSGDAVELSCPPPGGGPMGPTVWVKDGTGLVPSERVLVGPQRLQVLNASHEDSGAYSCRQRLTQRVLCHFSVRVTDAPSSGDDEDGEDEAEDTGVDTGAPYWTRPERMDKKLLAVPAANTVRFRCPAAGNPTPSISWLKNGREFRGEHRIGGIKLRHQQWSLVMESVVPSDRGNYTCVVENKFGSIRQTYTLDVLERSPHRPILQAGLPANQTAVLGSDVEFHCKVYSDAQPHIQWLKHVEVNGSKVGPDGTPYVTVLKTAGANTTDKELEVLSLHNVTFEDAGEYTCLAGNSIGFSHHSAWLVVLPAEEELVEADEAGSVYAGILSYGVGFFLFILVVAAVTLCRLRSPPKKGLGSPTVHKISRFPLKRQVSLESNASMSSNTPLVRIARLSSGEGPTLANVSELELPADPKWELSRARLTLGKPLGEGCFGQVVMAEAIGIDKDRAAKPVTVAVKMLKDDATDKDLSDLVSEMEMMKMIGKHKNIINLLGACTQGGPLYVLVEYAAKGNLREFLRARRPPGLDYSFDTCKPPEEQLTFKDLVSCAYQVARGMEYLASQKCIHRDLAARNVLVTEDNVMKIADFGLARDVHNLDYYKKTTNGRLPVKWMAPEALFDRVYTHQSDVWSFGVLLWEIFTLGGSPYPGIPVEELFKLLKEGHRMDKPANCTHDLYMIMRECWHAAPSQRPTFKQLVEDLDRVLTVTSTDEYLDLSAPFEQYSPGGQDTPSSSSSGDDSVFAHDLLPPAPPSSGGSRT

Sequence | phosphorylation enrichment (Jak2) | phosphorylation enrichment (c-Src) | phosphorylation enrichment (AncSZ) | phosphorylation enrichment (Fyn) | phosphorylation enrichment (Fer (mouse)) | phosphorylation enrichment (FGFR1) | phosphorylation enrichment (EPHB2) | phosphorylation enrichment (MERTK) | phosphorylation enrichment (c-Abl (mouse)) | phosphorylation enrichment (EPHB1) | phosphorylation enrichment (Hck) | phosphorylation enrichment (FGFR3) | phosphorylation enrichment (Fes) | SH2 binding enrichment (SHP2-C SH2) | SH2 binding enrichment (Grb2 SH2) | SH2 binding enrichment (c-Src SH2)
KMKGDYFRFLA [YWHAG_Y130_YF] | 4.54 | 2.11 | 0.722 | 1.01 | 0.282 | 5.05 | 0.509 | 0.632 | 0.806 | 0.804 | 0.543 | 3.83 | 0.689 | 1.6 | 1.71 | 1.22
KNITEYCRHLI [RECQL_Y492_D495H] | 0.88 | 0.477 | 0.726 | 0.433 | 0.533 | 0.526 | 0.436 | 0.43 | 0.654 | 0.51 | 0.455 | 0.533 | 0.855 | 0.773 | 0.812 | 0.612
KNKLNYTLPQD [NRAP_Y523] | 0.567 | 0.35 | 0.584 | 0.372 | 0.39 | 0.419 | 0.436 | 0.347 | 0.468 | 0.409 | 0.406 | 0.451 | 0.523 | 0.834 | 0.944 | 0.648
KPAFSYTSSST [SIM1_Y356] | 0.528 | 0.484 | 1.01 | 0.578 | 0.447 | 0.415 | 0.533 | 0.417 | 0.606 | 0.467 | 0.446 | 0.475 | 0.635 | 0.715 | 0.944 | 0.503
KPIETYFSKNF [PLP1_Y50_L46P_YF] | 0.636 | 0.44 | 0.656 | 0.544 | 0.379 | 0.417 | 0.497 | 0.465 | 0.53 | 0.506 | 0.436 | 0.555 | 0.775 | 0.568 | 0.663 | 0.439
KPNMNYDKLSQ [FLI1_Y332_R337Q] | 0.612 | 0.478 | 0.495 | 0.422 | 0.462 | 0.468 | 0.446 | 0.394 | 0.431 | 0.418 | 0.431 | 0.447 | 0.578 | 0.659 | 0.882 | 1.15
KPNMNYDKLSR [FLI1_Y332] | 0.389 | 0.418 | 0.548 | 0.342 | 0.324 | 0.416 | 0.541 | 0.337 | 0.459 | 0.494 | 0.454 | 0.4 | 0.486 | 0.725 | 0.895 | 1.59
KPPPSYESEEE [BRD4_Y599_T598S] | 1.32 | 0.591 | 1.42 | 0.639 | 0.557 | 0.584 | 0.761 | 0.543 | 0.957 | 0.611 | 0.601 | 0.71 | 1.29 | 0.517 | 1.04 | 0.762
KPVDTYYDSTR [DYNC2H1_Y2230_M2227V] | 0.756 | 0.56 | 0.808 | 0.508 | 0.427 | 0.826 | 0.496 | 0.397 | 0.633 | 0.648 | 0.808 | 0.668 | 0.809 | 0.64 | 0.848 | 0.923
KPYRVYCDMNT [FGB_Y269] | 1.1 | 0.562 | 1.04 | 0.6 | 0.68 | 0.51 | 0.783 | 0.492 | 0.779 | 1.53 | 0.691 | 0.789 | 1.13 | 0.658 | 1.03 | 1.04
KQINDYVEKGT [SERPINA1_Y184] | 0.72 | 0.478 | 0.733 | 0.44 | 0.536 | 0.402 | 0.431 | 0.374 | 0.546 | 0.491 | 0.433 | 0.58 | 0.905 | 0.585 | 0.726 | 0.528
KRLFAYKMLMA [TMC2_Y209_Q205R_YF] | 0.669 | 0.367 | 0.767 | 0.433 | 0.59 | 0.458 | 0.528 | 0.375 | 0.58 | 0.484 | 0.455 | 0.683 | 0.867 | 1.98 | 2.05 | 1.51
KSDVVYTDWKK [ORM1_Y175] | 0.648 | 1.65 | 0.856 | 1.55 | 0.592 | 0.558 | 0.513 | 0.559 | 1.4 | 0.44 | 4.84 | 0.609 | 1.02 | 0.885 | 0.757 | 0.505
KSPDSYQKILP [ATM_Y1415_L1420P] | 0.519 | 0.389 | 0.544 | 0.427 | 0.531 | 0.517 | 0.321 | 0.414 | 0.431 | 0.387 | 0.36 | 0.429 | 0.584 | 0.688 | 0.947 | 1.45
KSRQIYDAYIM [GRK3_Y109_R104K] | 0.581 | 8.25 | 0.797 | 11.1 | 12.4 | 0.505 | 7 | 6.9 | 5.89 | 2.98 | 8.38 | 0.546 | 0.735 | 0.834 | 0.955 | 0.683
KTSGNYLPVTG [WDR19_Y28_A30P] | 0.524 | 0.402 | 0.519 | 0.41 | 0.359 | 0.369 | 0.435 | 0.598 | 0.446 | 0.474 | 0.405 | 0.37 | 0.543 | 0.913 | 0.758 | 0.493
